Starred links: 1 amine or outer side, 2 acyl side, 3 side chain; linkers in the order of their positions; H or OH if unused. Non-standard residues stand in square brackets, D forms with d. Groups on a side chain read outwards from the residue. No end group written: not given here. *: point of attachment. C20 diacid = O=C(O)CCCCCCCCCCCCCCCCCCC(=O)*; C18 diacid = O=C(O)CCCCCCCCCCCCCCCCC(=O)*; αMePhe(2-F) = C[C@](N)(Cc1ccccc1F)C(=O)O; γGlu = O=C(O)[C@H](CCC(=O)[*:2])N[*:1]; αMeF = C[C@](N)(Cc1ccccc1)C(=O)O; 4Pal = N[C@@H](Cc1ccncc1)C(=O)O; AEEA = NCCOCCOCC(=O)O; Aib = CC(C)(N)C(=O)O
T1: human glucose-dependent insulinotropic polypeptide (GIP) receptor (human, UniProt P48546 22-466)
T1 construct: whole, on cells; Assayed as crude membranes of stably transfected CHO cells; also called hGIPR; human GIP receptor
T1 sequence (looked up): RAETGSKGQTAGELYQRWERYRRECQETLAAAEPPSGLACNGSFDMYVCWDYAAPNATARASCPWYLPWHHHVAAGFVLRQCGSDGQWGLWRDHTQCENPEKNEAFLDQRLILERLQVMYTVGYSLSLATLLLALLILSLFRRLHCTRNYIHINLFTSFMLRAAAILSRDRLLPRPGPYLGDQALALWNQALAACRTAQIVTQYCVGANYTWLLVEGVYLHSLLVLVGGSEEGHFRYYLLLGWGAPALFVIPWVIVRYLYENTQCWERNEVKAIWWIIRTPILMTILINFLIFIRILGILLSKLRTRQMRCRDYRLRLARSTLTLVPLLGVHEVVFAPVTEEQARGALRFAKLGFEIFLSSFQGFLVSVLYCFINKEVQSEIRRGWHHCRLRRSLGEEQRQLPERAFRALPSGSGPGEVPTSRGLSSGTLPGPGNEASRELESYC

B1: Example 12 (peptide)
peptide: Y[dA]EGTFISDYSILLDKK([AEEA-AEEA-γGlu-C20 diacid])AQQDFVNWLLAGGPSSGAPPPS-NH2
modifications: N-terminus assumed
SMILES: CC[C@H](C)[C@H](NC(=O)[C@H](CO)NC(=O)[C@H](Cc1ccc(O)cc1)NC(=O)[C@H](CC(=O)O)NC(=O)[C@H](CO)NC(=O)[C@@H](NC(=O)[C@H](Cc1ccccc1)NC(=O)[C@@H](NC(=O)CNC(=O)[C@H](CCC(=O)O)NC(=O)[C@@H](C)NC(=O)[C@@H](N)Cc1ccc(O)cc1)[C@@H](C)O)[C@@H](C)CC)C(=O)N[C@@H](CC(C)C)C(=O)N[C@@H](CC(C)C)C(=O)N[C@@H](CC(=O)O)C(=O)N[C@@H](CCCCN)C(=O)N[C@@H](CCCCNC(=O)COCCOCCNC(=O)COCCOCCNC(=O)CC[C@H](NC(=O)CCCCCCCCCCCCCCCCCCC(=O)O)C(=O)O)C(=O)N[C@@H](C)C(=O)N[C@@H](CCC(N)=O)C(=O)N[C@@H](CCC(N)=O)C(=O)N[C@@H](CC(=O)O)C(=O)N[C@@H](Cc1ccccc1)C(=O)N[C@H](C(=O)N[C@@H](CC(N)=O)C(=O)N[C@@H](Cc1c[nH]c2ccccc12)C(=O)N[C@@H](CC(C)C)C(=O)N[C@@H](CC(C)C)C(=O)N[C@@H](C)C(=O)NCC(=O)NCC(=O)N1CCC[C@H]1C(=O)N[C@@H](CO)C(=O)N[C@@H](CO)C(=O)NCC(=O)N[C@@H](C)C(=O)N1CCC[C@H]1C(=O)N1CCC[C@H]1C(=O)N1CCC[C@H]1C(=O)N[C@@H](CO)C(N)=O)C(C)C
B2: Example 39 (peptide)
peptide: Y[Aib]EGT[αMePhe(2-F)]ISDYSIALDKK([AEEA-AEEA-γGlu-C20 diacid])HQ[Aib]DFVE[4Pal]LLEGGPSSGAPPPS-NH2
modifications: N-terminus assumed
SMILES: CC[C@H](C)[C@H](NC(=O)[C@H](CO)NC(=O)[C@H](Cc1ccc(O)cc1)NC(=O)[C@H](CC(=O)O)NC(=O)[C@H](CO)NC(=O)[C@@H](NC(=O)[C@](C)(Cc1ccccc1F)NC(=O)[C@@H](NC(=O)CNC(=O)[C@H](CCC(=O)O)NC(=O)C(C)(C)NC(=O)[C@@H](N)Cc1ccc(O)cc1)[C@@H](C)O)[C@@H](C)CC)C(=O)N[C@@H](C)C(=O)N[C@@H](CC(C)C)C(=O)N[C@@H](CC(=O)O)C(=O)N[C@@H](CCCCN)C(=O)N[C@@H](CCCCNC(=O)COCCOCCNC(=O)COCCOCCNC(=O)CC[C@H](NC(=O)CCCCCCCCCCCCCCCCCCC(=O)O)C(=O)O)C(=O)N[C@@H](Cc1c[nH]cn1)C(=O)N[C@@H](CCC(N)=O)C(=O)NC(C)(C)C(=O)N[C@@H](CC(=O)O)C(=O)N[C@@H](Cc1ccccc1)C(=O)N[C@H](C(=O)N[C@@H](CCC(=O)O)C(=O)N[C@@H](Cc1ccncc1)C(=O)N[C@@H](CC(C)C)C(=O)N[C@@H](CC(C)C)C(=O)N[C@@H](CCC(=O)O)C(=O)NCC(=O)NCC(=O)N1CCC[C@H]1C(=O)N[C@@H](CO)C(=O)N[C@@H](CO)C(=O)NCC(=O)N[C@@H](C)C(=O)N1CCC[C@H]1C(=O)N1CCC[C@H]1C(=O)N1CCC[C@H]1C(=O)N[C@@H](CO)C(N)=O)C(C)C
B3: Example 38 (peptide)
peptide: Y[Aib]EGT[αMePhe(2-F)]ISDYSIALDKK([AEEA-AEEA-γGlu-C20 diacid])HQ[Aib]DFVE[4Pal]LLETGPSSGAPPPS-NH2
modifications: N-terminus assumed
SMILES: CC[C@H](C)[C@H](NC(=O)[C@H](CO)NC(=O)[C@H](Cc1ccc(O)cc1)NC(=O)[C@H](CC(=O)O)NC(=O)[C@H](CO)NC(=O)[C@@H](NC(=O)[C@](C)(Cc1ccccc1F)NC(=O)[C@@H](NC(=O)CNC(=O)[C@H](CCC(=O)O)NC(=O)C(C)(C)NC(=O)[C@@H](N)Cc1ccc(O)cc1)[C@@H](C)O)[C@@H](C)CC)C(=O)N[C@@H](C)C(=O)N[C@@H](CC(C)C)C(=O)N[C@@H](CC(=O)O)C(=O)N[C@@H](CCCCN)C(=O)N[C@@H](CCCCNC(=O)COCCOCCNC(=O)COCCOCCNC(=O)CC[C@H](NC(=O)CCCCCCCCCCCCCCCCCCC(=O)O)C(=O)O)C(=O)N[C@@H](Cc1c[nH]cn1)C(=O)N[C@@H](CCC(N)=O)C(=O)NC(C)(C)C(=O)N[C@@H](CC(=O)O)C(=O)N[C@@H](Cc1ccccc1)C(=O)N[C@H](C(=O)N[C@@H](CCC(=O)O)C(=O)N[C@@H](Cc1ccncc1)C(=O)N[C@@H](CC(C)C)C(=O)N[C@@H](CC(C)C)C(=O)N[C@@H](CCC(=O)O)C(=O)N[C@H](C(=O)NCC(=O)N1CCC[C@H]1C(=O)N[C@@H](CO)C(=O)N[C@@H](CO)C(=O)NCC(=O)N[C@@H](C)C(=O)N1CCC[C@H]1C(=O)N1CCC[C@H]1C(=O)N1CCC[C@H]1C(=O)N[C@@H](CO)C(N)=O)[C@@H](C)O)C(C)C
B4: Example 42 (peptide)
peptide: Y[Aib]EGT[αMeF]ISDYSIALDKK([AEEA-AEEA-γGlu-C20 diacid])HQ[Aib]DFVE[4Pal]LLEQGPSSGAPPPS-NH2
modifications: N-terminus assumed
SMILES: CC[C@H](C)[C@H](NC(=O)[C@H](CO)NC(=O)[C@H](Cc1ccc(O)cc1)NC(=O)[C@H](CC(=O)O)NC(=O)[C@H](CO)NC(=O)[C@@H](NC(=O)[C@](C)(Cc1ccccc1)NC(=O)[C@@H](NC(=O)CNC(=O)[C@H](CCC(=O)O)NC(=O)C(C)(C)NC(=O)[C@@H](N)Cc1ccc(O)cc1)[C@@H](C)O)[C@@H](C)CC)C(=O)N[C@@H](C)C(=O)N[C@@H](CC(C)C)C(=O)N[C@@H](CC(=O)O)C(=O)N[C@@H](CCCCN)C(=O)N[C@@H](CCCCNC(=O)COCCOCCNC(=O)COCCOCCNC(=O)CC[C@H](NC(=O)CCCCCCCCCCCCCCCCCCC(=O)O)C(=O)O)C(=O)N[C@@H](Cc1c[nH]cn1)C(=O)N[C@@H](CCC(N)=O)C(=O)NC(C)(C)C(=O)N[C@@H](CC(=O)O)C(=O)N[C@@H](Cc1ccccc1)C(=O)N[C@H](C(=O)N[C@@H](CCC(=O)O)C(=O)N[C@@H](Cc1ccncc1)C(=O)N[C@@H](CC(C)C)C(=O)N[C@@H](CC(C)C)C(=O)N[C@@H](CCC(=O)O)C(=O)N[C@@H](CCC(N)=O)C(=O)NCC(=O)N1CCC[C@H]1C(=O)N[C@@H](CO)C(=O)N[C@@H](CO)C(=O)NCC(=O)N[C@@H](C)C(=O)N1CCC[C@H]1C(=O)N1CCC[C@H]1C(=O)N1CCC[C@H]1C(=O)N[C@@H](CO)C(N)=O)C(C)C
B5: Example 23 (peptide)
peptide: Y[Aib]EGT[αMeF]ISDYSIALDKK([AEEA-AEEA-γGlu-C18 diacid])HQ[Aib]DFVE[4Pal]LLAGGPSSGAPPPS-NH2
modifications: N-terminus assumed
SMILES: CC[C@H](C)[C@H](NC(=O)[C@H](CO)NC(=O)[C@H](Cc1ccc(O)cc1)NC(=O)[C@H](CC(=O)O)NC(=O)[C@H](CO)NC(=O)[C@@H](NC(=O)[C@](C)(Cc1ccccc1)NC(=O)[C@@H](NC(=O)CNC(=O)[C@H](CCC(=O)O)NC(=O)C(C)(C)NC(=O)[C@@H](N)Cc1ccc(O)cc1)[C@@H](C)O)[C@@H](C)CC)C(=O)N[C@@H](C)C(=O)N[C@@H](CC(C)C)C(=O)N[C@@H](CC(=O)O)C(=O)N[C@@H](CCCCN)C(=O)N[C@@H](CCCCNC(=O)COCCOCCNC(=O)COCCOCCNC(=O)CC[C@H](NC(=O)CCCCCCCCCCCCCCCCC(=O)O)C(=O)O)C(=O)N[C@@H](Cc1c[nH]cn1)C(=O)N[C@@H](CCC(N)=O)C(=O)NC(C)(C)C(=O)N[C@@H](CC(=O)O)C(=O)N[C@@H](Cc1ccccc1)C(=O)N[C@H](C(=O)N[C@@H](CCC(=O)O)C(=O)N[C@@H](Cc1ccncc1)C(=O)N[C@@H](CC(C)C)C(=O)N[C@@H](CC(C)C)C(=O)N[C@@H](C)C(=O)NCC(=O)NCC(=O)N1CCC[C@H]1C(=O)N[C@@H](CO)C(=O)N[C@@H](CO)C(=O)NCC(=O)N[C@@H](C)C(=O)N1CCC[C@H]1C(=O)N1CCC[C@H]1C(=O)N1CCC[C@H]1C(=O)N[C@@H](CO)C(N)=O)C(C)C
B6: Example 18 (peptide)
peptide: YXEGTFISDYSILLDKKAQXDFVNXLLAQGPSSGAPPPS
modifications: D-Ala2; K17((2-[2-(2-Amino-ethoxy)-ethoxy]-acetyl)2-(γ-Glu)-CO-(CH2)16-CO2H); Aib20; 4-Pal25; C-terminal amide

What follows are binders tested against T2, human GLP-1 receptor (human, UniProt P43220 24-463) (assay: SPA, displacement of [125I]-GLP-1 from hGLP-1R membranes, 0.1% bacitracin).
T2 construct: whole, on cells; Assayed as crude membranes of stably transfected HEK293 cells; also called hGLP1R; hGLP-1R
How it was run: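 Binding buffer: 25 mM HEPES pH 7.4, 2.5 mM CaCl₂, 1 mM MgCl₂, 0.1% bacitracin, 0.003% Tween-20, protease inhibitors without EDTA. Four-parameter nonlinear regression; Kᵢ given as geometric mean ± SEM, n = independent replicates run on different days.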

Going from B1 to B2, the Ki rises from 46.8 nM to 235 nM (5-fold).

B3 and B4 are within 1.5-fold of each other in Ki: 776 nM for the first, 563 nM for the second.

Going from B5 to B6, the Ki falls from 251 nM to 158 nM (1.6-fold). The second binds more tightly here.

What follows are binders tested against T1, human glucose-dependent insulinotropic … (assay: SPA, displacement of [125I]-GIP from hGIPR membranes, 0.1% bacitracin).

Going from B1 to B2, the Ki falls from 0.0876 nM to 0.0444 nM (2-fold).

First: B3
Second: B4
The Ki of the first is 1.5-fold higher: 0.0588 nM for the first, 0.0392 nM for the second.

B5 and B6 are within 1.5-fold of each other in Ki: 0.0341 nM for the first, 0.0331 nM for the second.

What follows are binders tested against T3, human glucagon receptor (human, UniProt P47871 26-477) (assay: SPA, displacement of [125I]-Gcg from hGcgR membranes, 0.1% bacitracin).
T3 construct: whole, on cells; Assayed as crude membranes of stably transfected HEK293 cells; also called hGcgR; GcgR
T3 sequence (P47871 26-477): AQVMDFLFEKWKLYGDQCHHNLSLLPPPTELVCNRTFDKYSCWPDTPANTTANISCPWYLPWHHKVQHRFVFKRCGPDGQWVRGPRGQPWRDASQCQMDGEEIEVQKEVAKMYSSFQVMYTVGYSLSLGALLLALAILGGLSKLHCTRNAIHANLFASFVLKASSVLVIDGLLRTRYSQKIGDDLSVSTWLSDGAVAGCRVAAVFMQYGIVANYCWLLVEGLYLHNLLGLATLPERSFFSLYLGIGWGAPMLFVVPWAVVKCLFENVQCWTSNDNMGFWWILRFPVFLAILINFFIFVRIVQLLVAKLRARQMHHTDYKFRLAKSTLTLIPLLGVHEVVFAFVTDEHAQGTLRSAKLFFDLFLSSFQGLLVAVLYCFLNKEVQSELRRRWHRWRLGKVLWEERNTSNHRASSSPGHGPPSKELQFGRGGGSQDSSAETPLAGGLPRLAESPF
How it was run: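 Binding buffer: 25 mM HEPES pH 7.4, 2.5 mM CaCl₂, 1 mM MgCl₂, 0.003% Tween-20, protease inhibitors without EDTA. Counted by scintillation after 12 h incubation/settling at room temperature. Four-parameter nonlinear fit; Kᵢ given as geometric mean ± SEM of independent replicates run on different days.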

First: B1
Second: B2
The Ki of the first is 1.8-fold higher: 134 nM for the first, 76 nM for the second.

Compared with B3, B4 is 1.8-fold lower in Ki: 182 nM for the first, 99.1 nM for the second.

B5 and B6 are within 1.5-fold of each other in Ki: 323 nM for the first, 463 nM for the second.

Reference: US20210032299A1 (Eli Lilly, published 2021)
